Results published in the nanobody polyreactivity screen of Harvey et al. (2022).

Test: yeast display, Sf9 membrane polyspecificity reagent, FACS + sequencing; frameworks hold sequencing errors
Procedure, shortened: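 Nanobodies came from a synthetic yeast display library in Saccharomyces cerevisiae BJ5465, induced with galactose for 36–48 hours and stained for 1 hour at 4 °C with 10% biotinylated, detergent-solubilized Sf9 membrane reagent. Cells were enriched on streptavidin microbeads and then FACS-sorted, with low and high (top ~1%) gates set on anti-HA fluorescence for expression and streptavidin fluorescence for reagent binding. Each polyreactivity label reflects the gate a clone came from. Genes were amplified by colony PCR, sequenced by MiSeq 2 × 250 and filtered by CDR length.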

Row | Sequence | polyreactivity (PSR sort gate)
1 | QVQLVESGGGLVQAGGSLRLSCAASGRIFVRYAMGWYRQAPGKERELVAAISYRGGSTYYADSVKGRFTISRDNAKNTVYLQMNSLKPEDTAVYYCAARNSYGNWRYYYWGQGTQVTVSS | high polyreactivity
2 | QVQLVESGGGLVQAGGSLRLSCAASGRTFYSNAMGWYRQAPGKERELVAVIRWNGGSTYADSVKGRFTISRDNAKNTVYLQMNSLKPEDTAVYYCAVTRYHSPPRYYYWGQGTQVTVSS | low polyreactivity
3 | QVQLVESGGGLVQAGGSLRLSFAASGITITYYAMGWYRQAPGKERELVAGITNGRSTYYADSVKGRFTISRDNAKNTVYLQMNSLKPEDTAVYYCAAYVWSHSVGHDYWGQGTQVTVSS | low polyreactivity
4 | QVQLVESGGGLVQAGGSLRLSCAASGSTFYVNVMGWYRQAPGKERELVAGITIRDGSTYYADSVKGRFTISRDNAKNTVYLQMNSLKPEDTAVYYCARAGDGEYKRDYWGQGTQVTVSS | low polyreactivity
5 | QVQLVESGGGLVQAGGSLRLSCAASGRIFRLYAMGWYRQAPGKERELVAAIRVSGNTYYADSVKGRFTISRDNAKNTVYLQMNSLKPEDTAVYYCAAKPYYFYGMDYWGQGTQVTVSS | high polyreactivity
6 | QVQLVESGGGLVQAGGSLRLSCASSGFTINWNDMGWYRQAPGKERELVAAISGGASTYYADSVKGRFTISRDNAKNTVYLQMNSLKPEDTAVYYCAADLDEWGYLFDYWGQGTQVTVSS | low polyreactivity
7 | QVQLVESGGGLVQAGGSLRLSCAASGRTFWFYAMGWYRQAPGKERELVASITSGGGTNYADSVKGRFTISRDNAKNTVYLQMNRLKPEDTAVYYCAAARKLDATTYYKFDYWGQVTQVTVSS | high polyreactivity
8 | QVQLVESGGGLVQAVGSLRLSCAASGYFFSSNAMGWYSQSPGKERELVAAITASGGGTYYADSVKGRFTISRDNAQNTVYIQMKSLKPEDTAVYYCAADFNDHYYWYGQDFDYWGQGTQVTVSS | low polyreactivity
9 | QVQLVESGGGLVQAGGSLRISCAASGFTFRANAMGWYRQAPGKEREVVAAISQSGGRTYYADSVKARFTISRDNAKNTVYLQMNSLKPEDTAVYDCAAPDSAKELYYRMDYWGQGTQVTVSS | high polyreactivity
10 | QFQLVESRGGLVQAGGSLRLNCASSGSIFYSYAIGWYRQAPGKERELVAAITRGGSTYYADSVKGRFTISRDNAKNTVYLQMNSLKREDTAVYYCAAEFYSYKYPDYDYWGQGTQVTVSS | low polyreactivity
11 | QVQLGESGGGLVQAGGSLRLSCAASGFIFRYYGMGWYRQAPGKERELVAAISRGGGSTYYADSVKGRFTISRDNAKNTVYLQMNSLKPEDTAVYYCATRRDPDYDYWGQGTQVTVSS | high polyreactivity
12 | QVQLVESGGGLVQAGGSLRLSCAASGSTFYNYVMGWYRQAPGKERELVAAISSSGGNTYYADSVKGRFTISRDNAKNTVYLQMNSLKPEDTAVYYCAARERHPSGGKYDYWGQGTQVTVSS | high polyreactivity
13 | QVQLVESGGGLVQAGGSLRLSCAASGSIFFYYAMGWYRQAPGKERELVAAITKIGVGTFYADSVKGRFTISRDNAKNTVYLQMNSLKPEDTAVYYCNARTAWEGYDYWGQGTQVTVSS | low polyreactivity
14 | QVQLVESGGGLVQAGASLRLSCAASGRTFGKYAMGWYRQAPGKERELVAAITTRVVITYYADSVKGRFTISRDTAKITVYLQMNSLKPEDSADYYCAAVSIYWGQGTQVTVSS | low polyreactivity
15 | QVQLVESGGGLVQAGGSLRLSCAASGSIFRSNAMGWYRQAPGQERELVAAISRSGGRTYYADSVKGRFTISRDNAKNTVYLQMNSLKPEDTAVYYCAAQVVRSLKYEYWGQGTQLTVSS | high polyreactivity
16 | QVQLVESGGGLVQAGGSLRLSCAASGFTFRYYTMGWYRQAPGKETELVAAINTSGAGTYYADSVKGRFTISRDNAKNTVYLQMNSLKPEDTAVYYCAATWYGLDYNYWGQGTQVTVSS | high polyreactivity
17 | QVQLVESVGGLVQAGGSLRLSCAASGSIFNYYAMGWYRQAPGKERELVAAITTSGGNTYYADSVKGRFTISRDNPKNTVYLQMNSLKPEDTAVYYCAADYWASGGEYDYWGQGTQVTVSS | low polyreactivity
18 | QVQLVESGGGLVQEGGSLRLICSASGSTFRANAMGWYRQAPGKERELVAAITSSGGSTYYADSVKGRFTISRDNAKNTVYLQMNSLKPEDTAVYYCAKENAPSRLTYGYWGQGTQVTVSS | low polyreactivity
19 | QVQLVESGGGLVQAGGSLRLSCAASGLIFTTNAMGWYRQAPGKERELVAAISTSTGRTYYADSVKGRFTISRDTAKNTVYFQMNSLKPEDTAVYYCAADGFLSYYGFWRYEYWGQGTQVTVSS | high polyreactivity
20 | QVQLVESGGGLVQAGGSLRLSCAASGRISDRNAMGWYRQAPGKERELVATIRSGGSTNYADSVKGRFTISPDNAMNTVYLQMNSLKPEDTAVYYCATAKLTWRSQGLDYWGQGTQVTVSS | low polyreactivity
21 | QVQLVESGGGLVQAGGTLRLSCAASGSTFYENTMGWYRQARGKERELVAAISFRGGSTYYADSVKGRFTISRDNAKKTVYLQMNSLKPEDTAVYYCAKDYYTLRLYDYWGQGTLVTVSS | low polyreactivity
22 | QVQLVESGGGLVQAGGSLRFTFGATGIIFYRNTMGWYSLAPGKHRELVASLSRGGSTNYADSVKGRFTISRDNAKTTVYLQMNRLKPEDTAVDYCAAYTDIPLSYYRGYTMDYWGQGTQVTVSS | low polyreactivity

Row | Sequence | polyreactivity (PSR sort gate)
23 | QVQLVESGGGLVQAGGSLRLSCAASGIIFLVYAMGWSRQAPGKEGQLVAGISGSATSTNYADSVKGRFTISRDNAKNTVYLEMNSLKPEDTAVYYCAASYYGYYVPDNSKYGYWGQGTQVTVSS | low polyreactivity
24 | QVQRVESGGGLVQAGGSLRLSCAASGFIISWYAMGWSRQAPGKERELVAAISSGGSTTYADSVKGRFTISRDNAKNTVSLQMNSLKPEDTAVYYCNADQVYGYNYWGQGTQVTVSS | high polyreactivity
25 | QVQLVESGGGLVQAGGSLRLSCAASGITFDLYAMGWYRQAPGKEREFVATISWTGGTTYYADSVKGRFTISRDNAKNTVYLQMNSLKPEDTAVYYCNKGSDFFWYDYDYWGQGTQVTVSS | low polyreactivity
26 | QVQLVESGGGLVQAGGSLRLSCAASGFTFYKNAMGWYRQAPGKERELVARITGRGGSTYYADSVKGRFTISRDNAKNTVYLQMNSLKPEDTAVYYCAVDGLVWRNRGFDYWGQGTQVTVSS | high polyreactivity
27 | QVQLVESGGGLVQAGGSLRLSCAASGFIFGDKAMGWYRQAPGKERELVAAINSGSRTSYADSVKGRFTISRDNAKNTVYLQMNSLNPEDTAVYYCAAESVSSGDNASRYDYWGQGTQVTVSS | low polyreactivity
28 | QVQLVESGGGFVQAGGSLRLICAASGSIDYNAMGWYRQAPGKERELVAAITQRGGRTYYADSVKGRFTISRDNAKNTVYLQMNSLKPEDTAVYYCNTKGNYGLGYKNYYWGQGTQVTVSS | high polyreactivity
29 | QEQLVESGGGIVKAGGSLRLSCAASGSIFSYYAMGRYRKSPGKEMELVAGITGGGSTDYADSLKGRFTISRDNAKNTVYLQMNSLIPEDPAVYYCAKRYVPWRPYDYWGQGTQVTVSS | low polyreactivity
30 | QVQLVESGGGLVQAGGSLRLSCAASGRTFYKYAMGWYRQAPAKESELVAAISTRGTNTYYADSVKGRFTISRDYAKNTVYLQMKSLKPEDTAVYYCAAVTASPYSHDYWGQGTQVTVSS | high polyreactivity
31 | QVQLVESGGGLVQAGGSLRLSCASSGYTFIRYAIGLYRQAPGKERELVAAIRGTGTSTYYADSVKGRFTISRDNAKYTVYLQMNSLKTEDTAVYYCNKVAGRSPYTRYDYWGQGTHVTVSS | low polyreactivity
32 | QVQLVESGGGLVQAGGSLRLSCAASGFTFYQYAMGWYRQAPGKERELVAAITWNGGSTYYADSVKGRFTISRDNAKNTVYLQMNSLKPEDTAVYYCAAESPSKFDYDYWGQGTQVTVSS | high polyreactivity
33 | QVQLVESGGGLVQAGGSLRLSCAASGFIFYRYTMGWSRQAPGKERELVAGSSSRGTRTYYADSVKGRFTISRDNAKNTVYLQMNSLKPEDTAVYYCAKVDGSKRYNYWGQGTQVTVSS | high polyreactivity
34 | QVQLVESGGGLVQAGGSLRLSCAASGRTFRRYTMGWYRQAPGKERELVAAITTSGGSTYYADSVKGRFTISRDNAKNTVYLQMNSLKPEDTAVYYCAATRRYSGDYWGQGTQVTVSS | high polyreactivity
35 | QVQLVESGGGLVQAGGSLRLSCAASGTTFAYNAMGWYIQAPGKEREMVAAISTSGGSTNYADSVKGRYTISRDNAMNTVYLQMNSLKPEDTAVYYCAARPKTPSITRYGYWGQGTQVTVSS | high polyreactivity
36 | QVQLVESGGGLVQAGGSLRLSCAASGSTFPYYAMGWYRQATGKEREFVASITYGGGSTYYADSVKGRFTISRDNAKNTVYLQMNSLKPEDTAVYYCAAGYIAGRVWYDYWGQGTQVTVSS | low polyreactivity
37 | QVQLVESGGGLVQAGGSLRLSCAASGSTFVYNAMGWYRQAPGKERELVAAISSRGGGTYYADSVKGRFTISRDNAKNSVYLQMYSLKPEDTAVYYCNTLPYTHGSNDYWGQGTQVTVSS | high polyreactivity
38 | QVQLVESVGGLVQAGGSLRLSCAASGRTFAYYAMGWYRQAPGKERELVAAISYRGGTTYYADSVKGRFTISRDNSKNTVYLQMYILKQEDTAVYYCAAKVGVSWYGYWGKGTQVTVSS | high polyreactivity
39 | QVQHVESGGGLVQAGGSLRLSCAASGRIFDLNAMGWYRQATGKERELVAAISYSGGRTFSADSVKRRFTISRDNAKNTVYLQMNSLKPEDTAVYYCAAVAYLNWTPHYYWGQGTQVTVSS | low polyreactivity
40 | QVQLVESGGGLVQAGGSLRLSCSASGFTFDYYAMGWYRQAPGKERELVAAITWNTVSTYYADSVKGRFTISRDNAKNTVYLQMNSLKPEDTAVYYCAADTQWLYRYDYWGQGTQVTVSS | low polyreactivity
41 | QVQLVESGGGLVQAGGSLRLSCAASGRTFPGNAMGWYRQAPGKERELVAAISRRGGTTYYADSVKGRFTITRDNAKNTVYLQMNSLKPEDTAVYYCAKSYRDYGISDFDYWGQGTQVTVSS | high polyreactivity
42 | QVQLVESGGGLVQAGGSLRLSCAASGSIFLDNAMGWYRQAPGKEREFVATISWRTGRTYYADSVKGRFTISRDNAKNTVYLHMNSLKPEDTAVYYCAVDTVRNHRMDYWGQGTQVTVSS | low polyreactivity
43 | QVQLVESGGGLVQAGGSLRLSCAASGSTFGGNAMGWYRQAPGKERELVASISSSGGRTYYADSVKGRFTISRDNAKNTVYLQMNSLKPEDTAVYYCAAKAWYPRVGFLRGGYWGQGTQVTVSS | high polyreactivity
